Substitutions are numbered along the chain they refer to. In names and notes the source's numbering stands. Where two headings read alike, the source gives them in different places. One block for each binder: values may come before it.
Key:
Full-length Human OX40 [1] = target: T1, Full-length Human OX40 (human, UniProt P43489 29-277); experiment: cell-based or functional assay
T1 sequence: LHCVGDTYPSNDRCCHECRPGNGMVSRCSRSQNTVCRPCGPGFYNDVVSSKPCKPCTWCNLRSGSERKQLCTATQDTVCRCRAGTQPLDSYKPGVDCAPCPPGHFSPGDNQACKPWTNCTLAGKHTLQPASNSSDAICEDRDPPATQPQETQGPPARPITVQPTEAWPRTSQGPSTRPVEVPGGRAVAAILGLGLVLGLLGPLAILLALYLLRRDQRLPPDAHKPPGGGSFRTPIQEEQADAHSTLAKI

Full-length Human 4-1BB [2] = target: T2, Full-length Human 4-1BB (human, UniProt Q07011 24-255); experiment: cell-based or functional assay
Full-length Human OX40 [3] = target: T1, Full-length Human OX40; experiment: flow cytometry, CHO cells expressing human OX40
Description: (§1) FIGS. 12A-12D show the binding of anti-4-1BB x anti-OX40 constructs, with additional humanization in 4-1BB and altered orientations of binding domains, human (12A) or cynomolgus (12C) 4-1BB-expressing Jurkat cells or human (12B) or cynomolgus (12D) OX40-expressing CHOK1SV cells. Serial dilutions of ADAPTIR™ constructs were incubated with transfected cells and subsequently labelled with a fluorescently-conjugated goat-a-human Fc secondary antibody. […] (See Example 19.)
(§2) Binding studies were performed using the flow cytometry-based staining procedures described above.

Human OX40 ECD-AFH [4] = target: T3, Human OX40 ECD-AFH (human); experiment: SPR, construct captured, monomeric ECD as analyte
T3 construct: ECD'; entry includes the C-terminal tags; also called OXF003; Human OX40 ECD-avi-flag-his
T3 chain: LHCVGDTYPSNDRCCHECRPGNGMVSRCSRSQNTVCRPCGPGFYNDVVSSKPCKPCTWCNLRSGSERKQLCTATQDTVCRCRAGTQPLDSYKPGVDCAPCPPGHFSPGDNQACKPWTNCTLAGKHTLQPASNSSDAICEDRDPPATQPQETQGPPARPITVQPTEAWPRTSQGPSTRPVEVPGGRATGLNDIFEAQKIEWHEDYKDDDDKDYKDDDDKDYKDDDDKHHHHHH
Description: (§3) Mouse anti-human IgG (GE, BR-1008-39) at 25 μg/ml in 10 mM sodium acetate pH 5.0 was immobilized at a density of ˜10,000 response units (RU) onto each flow cell of a CM5 research-grade sensor chip (GE) by standard amine coupling chemistry. Each binding protein at approximately 100 nM in HBS-EP+ with 0.2% BSA buffer was captured in a flow cell with the immobilized anti-human IgG at a flow rate of 10 μL/min for 20 seconds, leaving one flow cell surface unmodified as the reference. Using a single-cycle kinetics mode, five different concentrations of ECD were sequentially injected through each flow cell at 30 μL/min for 300 seconds followed by a 600 second dissociation period. Regeneration was achieved by injection of 3 M MgCl₂ at a flow rate of 30 μL/min for 30 seconds followed by HBS-EP+ with 0.2% BSA buffer stabilization for 1 min.
(§4) Sensorgrams obtained from kinetic SPR measurements were analyzed by the double subtraction method. The signal from the reference flow cell was subtracted from the analyte binding response obtained from flow cells with immobilized or captured ligands. Buffer reference responses were then averaged from multiple injections. The averaged buffer reference responses were then subtracted from analyte binding responses, and the final double-referenced data were analyzed with Biacore T200 Evaluation software (2.0, GE), globally fitting data to derive kinetic parameters. All sensorgrams were fitted using a simple one-to-one binding model.
(§5) Protein was produced by transient expression, purified by ProA chromatography and prep SEC.

Human 4-1BB ECD-AFH [5] = target: T4, Human 4-1BB ECD-AFH (human); experiment: SPR, construct captured, monomeric ECD as analyte
T4 construct: entry includes the tags; also called FOB003; HUMAN CD137 ECD-AVI-FLAG-HIS
Description: as §3, §4, §5

Full-length Human 4-1BB [6] = target: T2, Full-length Human 4-1BB; experiment: flow cytometry, Jurkat cells expressing human 4-1BB
Description: as §1, §2

Full-length Cyno 4-1BB [7] = target: T5, Full-length Cyno 4-1BB (cynomolgus monkey, UniProt Q07011 24-255 (human entry)); experiment: flow cytometry on Jurkat cells transfected with cynomolgus 4-1BB, goat anti-human Fc secondary antibody, MFI (Mean)
T5 construct: on Jurkat or CHO cells; also called FOB006; cynomolgus 4-1BB
T5 chain: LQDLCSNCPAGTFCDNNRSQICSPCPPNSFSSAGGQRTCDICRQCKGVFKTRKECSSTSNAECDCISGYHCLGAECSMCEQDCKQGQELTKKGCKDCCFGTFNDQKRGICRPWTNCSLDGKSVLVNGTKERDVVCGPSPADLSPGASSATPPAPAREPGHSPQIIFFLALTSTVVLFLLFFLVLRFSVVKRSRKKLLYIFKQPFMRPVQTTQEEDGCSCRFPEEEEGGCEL
Description: as §1, §2

Full-length Cyno OX40 [8] = target: T6, Full-length Cyno OX40 (cynomolgus monkey, UniProt P43489 29-277 (human entry)); experiment: flow cytometry on CHOK1SV cells transfected with cynomolgus OX40, goat anti-human Fc secondary antibody, MFI (Mean)
T6 construct: on CHO-K1SV cells; also called OXF004; cynomolgus OX40
T6 chain: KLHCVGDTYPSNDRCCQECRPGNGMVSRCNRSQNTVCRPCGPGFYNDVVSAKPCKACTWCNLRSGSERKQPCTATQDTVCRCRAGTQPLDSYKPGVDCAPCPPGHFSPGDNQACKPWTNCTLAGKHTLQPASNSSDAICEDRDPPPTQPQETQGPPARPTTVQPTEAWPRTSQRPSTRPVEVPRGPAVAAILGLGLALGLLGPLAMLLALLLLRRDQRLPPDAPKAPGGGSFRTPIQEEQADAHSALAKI
Description: as §1, §2

Full-length Human OX40 [9] = target: T1, Full-length Human OX40; experiment: cell-based or functional assay; remark: listed apart in the source
Full-length Human 4-1BB [10] = target: T2, Full-length Human 4-1BB; experiment: cell-based or functional assay; remark: listed apart in the source
Human OX40 ECD-AFH [11] = target: T3, Human OX40 ECD-AFH; experiment: SPR (Biacore 8K), construct captured, monovalent ECD
Description: as §3, §4
(§6) Using the BIACORE 8K SPR system, the affinity of these constructs for human and cyno 4-1BB, and human and cyno OX40 ECD, were determined using the methods described above. Monovalent binding affinity was determined by capturing the ADAPTIR™ bispecific construct on the chip and injecting monovalent ECD of the target at multiple concentrations.

Cyno OX40-AFH = target: T7, Cyno OX40-AFH (cynomolgus monkey); experiment: as above
T7 construct: entry includes the tags; also called OXF005; cyno OX40 ECD
T7 chain: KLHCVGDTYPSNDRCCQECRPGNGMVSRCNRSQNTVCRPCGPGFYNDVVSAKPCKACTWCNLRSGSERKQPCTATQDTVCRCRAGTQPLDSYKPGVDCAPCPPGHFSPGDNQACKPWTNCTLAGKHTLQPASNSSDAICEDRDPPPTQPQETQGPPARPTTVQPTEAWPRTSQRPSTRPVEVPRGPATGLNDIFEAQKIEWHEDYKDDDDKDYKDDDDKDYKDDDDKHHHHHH
Description: as §3, §4, §6

Human 4-1BB ECD-AFH [12] = target: T4, Human 4-1BB ECD-AFH; experiment: as above
Description: as §3, §4, §6

Cyno 4-1BB ECD-AFH = target: T8, Cyno 4-1BB ECD-AFH (cynomolgus monkey); experiment: as above
T8 construct: entry includes the tags; also called FOB004; Cyno CD137 ECD-avi-flag-his
T8 chain: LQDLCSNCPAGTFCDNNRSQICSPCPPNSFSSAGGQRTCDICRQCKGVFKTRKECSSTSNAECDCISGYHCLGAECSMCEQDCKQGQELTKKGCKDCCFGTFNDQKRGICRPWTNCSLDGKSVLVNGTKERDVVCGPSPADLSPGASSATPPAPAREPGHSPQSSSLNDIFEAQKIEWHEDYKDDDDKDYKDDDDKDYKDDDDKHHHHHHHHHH
Description: as §3, §4, §6

Full-length Cyno 4-1BB [13] = target: T5, Full-length Cyno 4-1BB; experiment: flow cytometry on Jurkat cells transfected with cynomolgus 4-1BB, goat anti-human Fc secondary antibody, MFI (Mean)
Description: (§7) Serial dilutions of ADAPTIR™ constructs were incubated with transfected target cells and subsequently labelled with a fluorescently-conjugated goat-a-human Fc secondary antibody. […] (See Example 25.)

Full-length Cyno OX40 [14] = target: T6, Full-length Cyno OX40; experiment: flow cytometry on CHOK1SV cells transfected with cynomolgus OX40, goat anti-human Fc secondary antibody, MFI (Mean)
Description: as §7

- OX40 Reporter Assay EC50 (Full-length Human OX40 [1]): 0.01 nM
- OX40 Reporter Assay Max induction (Full-length Human OX40 [1]): 1.93e+06
- 4-1BB Reporter Assay EC50 (Full-length Human 4-1BB [2]): 0.017 nM
- 4-1BB Reporter Assay Max induction (Full-length Human 4-1BB [2]): 6.65e+06
- EC50 (Full-length Human OX40 [3]): 0.36 nM
- max MFI (Full-length Human OX40 [3]): 10400 MFI
- Kd (Human OX40 ECD-AFH [4]): 0.4 nM
- koff (Human OX40 ECD-AFH [4]): 0.00028 s⁻¹
- kon (Human OX40 ECD-AFH [4]): 770000 M⁻¹ s⁻¹
- Kd (Human 4-1BB ECD-AFH [5]): 14 nM
- koff (Human 4-1BB ECD-AFH [5]): 0.0046 s⁻¹
- kon (Human 4-1BB ECD-AFH [5]): 330000 M⁻¹ s⁻¹
- EC50 (Full-length Human 4-1BB [6]): 0.25 nM
- max MFI (Full-length Human 4-1BB [6]): 4900 MFI
- EC50 (read off the curve) (Full-length Cyno 4-1BB [7]): ~0.3 nM
- EC50 (read off the curve) (Full-length Cyno OX40 [8]): ~0.8 nM
B1: FXX01099 (bispecific antibody)
chain: EVQLVQSGAEVKKPGASVKVSCKASGYTFTSYWMNWVRQAPGQGLEWMGNIYPSGGSTNYAQKFQGRVTMTVDTSTSTVYMELSSLRSEDTAVYYCASFSDGYYAYAMDYWGQGTLVTVSSGGGGSGGGGSGGGGSGGGGSEIVMTQSPATLSLSPGERATLSCRASQSVSSYLNWYQQKPGQAPRLLIYYASRRHTGIPARFSGSGSGTDFTLTISSLQPEDFAVYYCQQGYNLPYTFGQGTKVEIKEPKSSDKTHTCPPCPAPPAAAPSVFLFPPKPKDTLMISRTPEVTCVVVDVSHEDPEVKFNWYVDGVEVHNAKTKPREEQYNSTYRVVSVLTVLHQDWLNGKEYKCAVSNKALPAPIEKTISKAKGQPREPQVYTLPPSRDELTKNQVSLTCLVKGFYPSDIAVEWESNGQPENNYKTTPPVLDSDGSFFLYSKLTVDKSRWQQGNVFSCSVMHEALHNHYTQKSLSLSPGGGGSPSSYVLTQPPSVSVAPGKTARITCGGNNIGSKSVNWFQQKPGQAPVLVVYDDSGRPSGIPERFSGSTSGNTATLTISRVEAGDEADYYCQVWDSSSDHVVFGGGTKLTVLGGGGSGGGGSGGGGSGGGGSQVQLVESGGGVVQPGRSLRLSCAASGFTLSYYGMHWVRQAPGKGLEWVAAISHDGSDKYYADSVKGRFTISRDNSKNTLYLQMNSLRAEDTAVYYCSNDQFDPWGQGTLVTVSSR
notes: ADAPTIR anti-4-1BB (HL) x anti-OX40 with Q17K; also called FX01099

- OX40 Reporter Assay EC50 (Full-length Human OX40 [9]): 0.012 nM
- OX40 Reporter Assay Max induction (Full-length Human OX40 [9]): 6.12e+06
- 4-1BB Reporter Assay EC50 (Full-length Human 4-1BB [10]): 0.015 nM
- 4-1BB Reporter Assay Max induction (Full-length Human 4-1BB [10]): 1.38e+06
- Kd (Human OX40 ECD-AFH [11]): 0.4 nM
- koff (Human OX40 ECD-AFH [11]): 0.00039 s⁻¹
- kon (Human OX40 ECD-AFH [11]): 1e+06 M⁻¹ s⁻¹
- Kd (Cyno OX40-AFH): 0.2 nM
- koff (Cyno OX40-AFH): 0.00023 s⁻¹
- kon (Cyno OX40-AFH): 950000 M⁻¹ s⁻¹
- Kd (Human 4-1BB ECD-AFH [12]): 18 nM
- koff (Human 4-1BB ECD-AFH [12]): 0.0046 s⁻¹
- kon (Human 4-1BB ECD-AFH [12]): 260000 M⁻¹ s⁻¹
- Kd (Cyno 4-1BB ECD-AFH): 77 nM
- koff (Cyno 4-1BB ECD-AFH): 0.0075 s⁻¹
- kon (Cyno 4-1BB ECD-AFH): 97000 M⁻¹ s⁻¹
- EC50 (read off the curve) (Full-length Cyno 4-1BB [13]): ~0.3 nM
- EC50 (read off the curve) (Full-length Cyno OX40 [14]): 1 to 2 nM
B2: FXX01120 (bispecific antibody)
chain: B1 chain with I541V, E543S, T690R
notes: ADAPTIR anti-4-1BB x anti-OX40, pI variant

- OX40 Reporter Assay EC50 (Full-length Human OX40 [9]): 0.016 nM
- OX40 Reporter Assay Max induction (Full-length Human OX40 [9]): 6.19e+06
- 4-1BB Reporter Assay EC50 (Full-length Human 4-1BB [10]): 0.016 nM
- 4-1BB Reporter Assay Max induction (Full-length Human 4-1BB [10]): 1.43e+06
- Kd (Human OX40 ECD-AFH [11]): 0.1 nM
- koff (Human OX40 ECD-AFH [11]): 0.00013 s⁻¹
- kon (Human OX40 ECD-AFH [11]): 1.2e+06 M⁻¹ s⁻¹
- Kd (Cyno OX40-AFH): 0.2 nM
- koff (Cyno OX40-AFH): 0.00018 s⁻¹
- kon (Cyno OX40-AFH): 1e+06 M⁻¹ s⁻¹
- Kd (Human 4-1BB ECD-AFH [12]): 9 nM
- koff (Human 4-1BB ECD-AFH [12]): 0.0036 s⁻¹
- kon (Human 4-1BB ECD-AFH [12]): 390000 M⁻¹ s⁻¹
- Kd (Cyno 4-1BB ECD-AFH): 30 nM
- koff (Cyno 4-1BB ECD-AFH): 0.013 s⁻¹
- kon (Cyno 4-1BB ECD-AFH): 420000 M⁻¹ s⁻¹
- EC50 (read off the curve) (Full-length Cyno 4-1BB [13]): ~0.3 nM
- EC50 (read off the curve) (Full-length Cyno OX40 [14]): 1 to 2 nM
B3: FXX01121 (bispecific antibody)
chain: B1 chain with E543K, T690R
notes: as for B2

From patent US20220242962A1 (APTEVO RESEARCH AND DEVELOPMENT, published 2022)
